Results as given in paper PMC6721605.

Molecular target: dynamin-like protein B (dlpB) of Dictyostelium discoideum (Dictyostelium discoideum (endogenous in AX2)) (UniProt Q54MH8)
Test: co-IP; anti-dlpB antibodies on Dynabeads protein G; lysate of partially synchronized (mitotic) wild-type cells (10 °C 16 h, then 10 µM thiabendazole 3.5 h); lysis buffer 150 mM NaCl, 5 mM EGTA, 5 mM EDTA, 1% Triton X-100, 20 mM Tris-HCl pH 7.5; western blot with anti-dlpA and anti-dlpB

Sequence of UniProt Q54MH8 (Q54MH8 whole entry): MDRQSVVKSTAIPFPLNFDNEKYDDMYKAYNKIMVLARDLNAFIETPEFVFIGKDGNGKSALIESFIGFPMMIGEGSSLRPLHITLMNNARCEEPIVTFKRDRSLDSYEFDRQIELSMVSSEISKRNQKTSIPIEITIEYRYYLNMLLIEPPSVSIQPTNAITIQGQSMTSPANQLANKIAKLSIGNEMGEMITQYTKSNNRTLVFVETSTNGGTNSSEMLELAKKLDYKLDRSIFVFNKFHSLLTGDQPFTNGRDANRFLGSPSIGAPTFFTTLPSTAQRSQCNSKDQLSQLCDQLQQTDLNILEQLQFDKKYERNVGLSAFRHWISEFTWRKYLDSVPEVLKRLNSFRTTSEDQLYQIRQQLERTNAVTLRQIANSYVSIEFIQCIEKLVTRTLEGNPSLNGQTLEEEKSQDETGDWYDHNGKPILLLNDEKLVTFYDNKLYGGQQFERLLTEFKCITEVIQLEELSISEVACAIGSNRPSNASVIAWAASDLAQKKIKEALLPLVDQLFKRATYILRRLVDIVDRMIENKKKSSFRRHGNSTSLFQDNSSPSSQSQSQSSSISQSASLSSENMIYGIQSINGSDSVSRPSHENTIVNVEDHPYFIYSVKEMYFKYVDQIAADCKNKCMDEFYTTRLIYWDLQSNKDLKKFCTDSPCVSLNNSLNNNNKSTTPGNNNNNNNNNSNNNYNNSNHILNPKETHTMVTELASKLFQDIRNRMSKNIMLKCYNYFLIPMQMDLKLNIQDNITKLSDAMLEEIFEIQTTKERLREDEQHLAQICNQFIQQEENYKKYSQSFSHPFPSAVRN

amount of dlpA in the IP fraction as percent of that in supernatant: 58%
B1: dynamin-like protein A (dlpA) of Dictyostelium discoideum (natural protein)
chain: MSVFKKKDKSDDKKKKHDEETPQGTFQPASQSTSNTNLNSLASSVNNGASVGSTNGSTPNNSNGSTPTYNHNNSAEELEKQKKEEDEKRKKSELEAAAAVVAKKKEDEEKQRKEQVELERKRRDEEIRRTNAAAANAANKELNEQVEISSLEQMGKLDPSSTIHDMFSFFPNEVYNSYEKLQYFSRDLNTAVSHPEIVFVGPRSSGKSSLIEAFIGRALNIVGGGNIVGVGGSNANGCSKRVLYLQFTNNIDFEVPKVTIKKDNTIKEFDHDIIVSIEQLNENLAKRNQLTNDYIEEPIYVSIESRTTLNLTLIDSPGLLFDQSQAESNKIESIVSSLLRPSHRLIIAVESCSQDWKSMSMGQYLKKIDPELSRSTFVFTKFHHTVRGFSSTRDINKYLSGTVPDIKGFFVTLPNHQVRASYSEANRFQEKIYQAHKRDMHALEQLQYDKRYERTIGVAPLRRYILNIVWKSYQDTIPRILKHLRSKRQTAEATLNELQKQSSSLDSTKLRSIASNYTVTFLQITEKLLSGTSEGNPSANGQTLDEEKSQQGDCGEWVDAYKEAIYIDPEEWNIPYWSSKLYGGQQLERLMAEFKAVCDNSKISEVKMDDIATASGINKLNNIPNYAWAASDLTSLISRDTFVPLIEQLCERAMYIMKRLTDIADKVIDSRRKSRCIGSSPFGGNGLNNINSGGNNGININDRLSNTDMDSLDQYPFFTHHVKNLYYDFVHRAAKGCKEKCMDEFYSSRTIYWELTEHPDSSLPSIRNDHHETKTAVCQLATKLFDSIRQRITKNVLLKLYNFFLVPMQTDLWNEIQAQITCLSNEQLEQLFEVQATREQLKQEEKKQQQILEKYSQIDEQFLKAASLFCRPLSNPTPSA
